According to paper PMC10680838:

Molecular target: DcpA (Agrobacterium tumefaciens C58)
Assay: cross-linking

Which stoichiometry N does the source give for PruR (natural protein) here?
Its stoichiometry N is 1.
